# Measured values reported in publication PMC5852461 (Biochemistry, 2018).
# T1: TatBC–His6 complex (GDN-solubilized, purified) (E. coli, UniProt P69425 1-171; P69423 1-258)
# T1 sequence (looked up) 1: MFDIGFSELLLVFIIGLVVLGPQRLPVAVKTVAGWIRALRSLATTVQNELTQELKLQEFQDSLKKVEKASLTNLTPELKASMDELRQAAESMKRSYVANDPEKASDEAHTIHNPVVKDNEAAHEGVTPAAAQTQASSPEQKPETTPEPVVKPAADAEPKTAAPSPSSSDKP
# T1 sequence (looked up) 2: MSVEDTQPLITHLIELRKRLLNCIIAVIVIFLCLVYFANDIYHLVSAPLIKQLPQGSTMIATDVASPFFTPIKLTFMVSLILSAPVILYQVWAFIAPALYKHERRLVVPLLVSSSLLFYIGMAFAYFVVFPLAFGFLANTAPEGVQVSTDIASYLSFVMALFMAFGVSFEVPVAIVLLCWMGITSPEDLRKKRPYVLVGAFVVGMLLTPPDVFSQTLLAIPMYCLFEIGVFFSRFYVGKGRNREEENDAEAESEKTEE
# How the values were obtained:
# [1] = molecular target: TatBC–strepII–His6 complex (E. coli) (UniProt P69425); experiment: SPR; Biacore T200; TatBC complex captured (about 300 RU) on polyclonal TatB antibodies coupled to a CM5 chip; precursor as analyte at 1.9–30 μM, injected for 3 min; 25 °C; 20 mM MOPS-NaOH, 200 mM NaCl, 1 mM EDTA, 0.01% GDN, pH 8; 1:1 binding model
# [2] = molecular target: TatBC–His6 complex (GDN-solubilized, purified) (E. coli) (UniProt P69425); experiment: ITC; TatBC–His6 (45 μM) in the cell; titrant 150 μM HiPIP or 85 μM TorA signal peptide; 25 °C; 20 mM MOPS-NaOH, 200 mM NaCl, 1 mM EDTA, 0.01% GDN, pH 8; one-site model; molar ratio counted per TatC–His6
# [3] = molecular target: T1, TatBC–His6 complex (GDN-solubilized, …); experiment: as above; conditions: both partners purified
molecule,measurement,setting,value
"E. coli CueO precursor, hexahistidine-tagged (from UniProt P36649 29-516) (natural protein)",Kd,[1],4.5 µM
same,koff,[1],0.0018 s⁻¹
same,kon,[1],400 M⁻¹ s⁻¹
"high-potential iron–sulfur protein (HiPIP) precursor from Acidithiobacillus ferrooxidans, His6-tagged (natural protein)",Kd,[2],6 µM
same,stoichiometry N (HiPIP per TatC),[2],0.33
SRRRFLAQLGGLTVAGMLGPSLLTPRR [TorA signal peptide (residues 10–36)],Kd,[3],~0.5 µM
same,stoichiometry N,[3],0.44 peptide per TatC
